This is an account of results in US20260049134A1 (UNIVERSITY OF FLORIDA RESEARCH FOUNDATION, published 2026).

Where a chain is given by its changes, count along the chain named. Names may count otherwise.

The chains are these.
T1: HHLA2
T1 construct: also called HHLA2-Fc (R&D Systems); B7-H7; not shown: Fc part and any linker
T1 chain: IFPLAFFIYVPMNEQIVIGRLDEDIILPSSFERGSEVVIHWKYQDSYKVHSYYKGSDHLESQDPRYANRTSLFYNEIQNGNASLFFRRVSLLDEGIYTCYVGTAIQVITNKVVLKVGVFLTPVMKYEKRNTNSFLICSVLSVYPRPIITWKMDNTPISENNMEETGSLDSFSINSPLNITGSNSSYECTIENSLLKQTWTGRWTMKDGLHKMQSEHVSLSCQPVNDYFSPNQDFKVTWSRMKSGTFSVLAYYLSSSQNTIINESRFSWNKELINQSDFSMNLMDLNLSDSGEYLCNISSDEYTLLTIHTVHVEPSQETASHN

T2: DCC
T2 construct: also called DCC-His (R&D Systems)
T2 chain: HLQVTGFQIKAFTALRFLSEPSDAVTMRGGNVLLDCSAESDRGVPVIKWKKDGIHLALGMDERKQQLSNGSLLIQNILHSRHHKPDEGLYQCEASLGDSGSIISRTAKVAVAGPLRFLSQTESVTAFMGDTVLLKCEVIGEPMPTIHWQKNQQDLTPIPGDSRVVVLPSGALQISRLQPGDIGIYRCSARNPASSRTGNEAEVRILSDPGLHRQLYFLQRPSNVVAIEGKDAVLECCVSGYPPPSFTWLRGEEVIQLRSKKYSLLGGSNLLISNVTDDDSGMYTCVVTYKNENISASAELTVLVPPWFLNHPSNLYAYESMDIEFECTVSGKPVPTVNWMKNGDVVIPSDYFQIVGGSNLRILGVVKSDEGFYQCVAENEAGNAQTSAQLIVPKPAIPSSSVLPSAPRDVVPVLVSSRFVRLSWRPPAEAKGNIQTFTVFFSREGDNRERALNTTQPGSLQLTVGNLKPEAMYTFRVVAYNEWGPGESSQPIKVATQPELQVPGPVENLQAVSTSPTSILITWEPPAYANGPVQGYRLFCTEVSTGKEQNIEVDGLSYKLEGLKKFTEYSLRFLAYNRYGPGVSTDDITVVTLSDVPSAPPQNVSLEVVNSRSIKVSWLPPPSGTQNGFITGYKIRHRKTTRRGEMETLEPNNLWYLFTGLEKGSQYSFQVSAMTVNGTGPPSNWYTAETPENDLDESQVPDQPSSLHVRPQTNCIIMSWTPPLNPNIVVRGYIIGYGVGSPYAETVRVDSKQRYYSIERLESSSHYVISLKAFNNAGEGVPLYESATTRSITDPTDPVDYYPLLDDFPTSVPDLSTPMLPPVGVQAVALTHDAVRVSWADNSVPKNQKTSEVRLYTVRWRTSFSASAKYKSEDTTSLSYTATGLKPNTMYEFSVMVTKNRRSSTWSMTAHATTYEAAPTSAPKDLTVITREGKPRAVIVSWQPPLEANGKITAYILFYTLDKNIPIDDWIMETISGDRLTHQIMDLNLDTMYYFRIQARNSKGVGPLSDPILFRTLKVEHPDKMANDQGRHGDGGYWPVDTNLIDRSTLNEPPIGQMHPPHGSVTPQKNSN

T3: SELL
T3 construct: also called SELL-Fc-His (R&D Systems); L-Selectin
T3 chain: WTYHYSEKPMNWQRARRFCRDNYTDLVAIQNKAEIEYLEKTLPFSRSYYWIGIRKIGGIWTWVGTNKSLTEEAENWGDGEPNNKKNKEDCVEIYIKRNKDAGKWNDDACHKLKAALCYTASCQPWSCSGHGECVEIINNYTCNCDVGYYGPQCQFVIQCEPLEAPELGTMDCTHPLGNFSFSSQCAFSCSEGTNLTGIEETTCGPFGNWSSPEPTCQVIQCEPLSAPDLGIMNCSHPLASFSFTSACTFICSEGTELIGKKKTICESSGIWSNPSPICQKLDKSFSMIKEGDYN

T4: GARS-His (Sino Biological) (human, UniProt P41250 37-739, limits assumed)
T4 construct: Bought; also called GARS1; glycyl-tRNA synthetase; not shown: His tag of the bought protein
T4 sequence: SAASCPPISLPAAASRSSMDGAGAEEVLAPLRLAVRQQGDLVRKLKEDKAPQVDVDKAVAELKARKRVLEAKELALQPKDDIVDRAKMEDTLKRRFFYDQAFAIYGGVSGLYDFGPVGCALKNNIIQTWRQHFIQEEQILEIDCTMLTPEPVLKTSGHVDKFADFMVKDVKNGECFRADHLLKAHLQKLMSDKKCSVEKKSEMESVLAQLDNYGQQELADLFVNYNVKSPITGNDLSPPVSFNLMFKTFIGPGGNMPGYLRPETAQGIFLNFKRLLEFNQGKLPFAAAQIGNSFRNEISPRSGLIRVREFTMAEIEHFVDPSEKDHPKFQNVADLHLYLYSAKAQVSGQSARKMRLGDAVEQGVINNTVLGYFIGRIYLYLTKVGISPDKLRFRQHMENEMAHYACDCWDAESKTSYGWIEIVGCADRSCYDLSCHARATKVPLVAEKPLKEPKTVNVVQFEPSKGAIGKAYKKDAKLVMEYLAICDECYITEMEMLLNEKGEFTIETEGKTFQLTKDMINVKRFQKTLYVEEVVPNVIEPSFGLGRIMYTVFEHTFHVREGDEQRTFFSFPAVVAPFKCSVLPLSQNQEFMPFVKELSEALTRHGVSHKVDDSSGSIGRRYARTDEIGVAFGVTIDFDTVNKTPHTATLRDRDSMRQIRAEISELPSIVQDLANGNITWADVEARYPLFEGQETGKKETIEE

B1: HW-8 chimeric rabbit-human IgG1 LA/LA/PG (antibody, V domains shown)
VH: QSLEESGGRLVTPGTPLTLTCTVSGFSLSSYAMSWVRQAPGKGLEWIGAISTGGSTTYASWAKGRFTISKTSSTTVDLKMTSLTTEDTATYFCVRHFRLWGPGTLVTISS
VL: QVLTQTPSSVSAAVGGTVTIKCQASQSIGSALAWFQQKPGQRPKLLIYRASNLASGVPSRFKGSGSGTEFALTISGVQREDAATYYCLGGAAAVWAFGAGTNVEIKR
notes: Fc-silenced (L234A/L235A/P329G) IgG1, kappa; Alexa Fluor 647-labeled in single-step flow cytometry; Cluster C-45
B2: HW-42 chimeric rabbit-human IgG1 LA/LA/PG (antibody, V domains shown)
VH: QSVKESEGGLFKPADTLTLTCTVSGFSLSSNEISWVRQAPGEGLEYIGIIDTGGRAYYAVWARSRSTITRNTNLNTVTLKMTSLTAADTATYFCARGGVDTEWYAFSSWGPGTLVTVPS
VL: SFVLTQPASVQVNLGQTVSLTCTADTLSRRYASWYQQKPGQAPVLLIFRDTSRPSGVPDRFSGSSSGDTATLTISGAQAGDEADYYCATSDGSGSNYQYVFGGGTQLTVTG
notes: Fc-silenced (L234A/L235A/P329G) IgG1, lambda; Alexa Fluor 647-labeled in single-step flow cytometry; Cluster C-1
B3: HW-1 chimeric rabbit-human IgG1 LA/LA/PG (antibody, V domains shown)
VH: QSLEESGGGLFKPTDTLTLTCTASGFSLGSSYAISWVRQAPGKELEWIGTIDSGRAYYARWAKSRSTITRNTNENTVTLKMTSLTAADTATYFCARDLIPTYSQDIWGPGTLVTISS
VL: B2 VL with F48Y, D68N, S95N, N96S, G111S
notes: Fc-silenced (L234A/L235A/P329G) IgG1, lambda; Alexa Fluor 647-labeled in single-step flow cytometry; Prototype of cluster C-1
B4: HW-17 chimeric rabbit-human IgG1 LA/LA/PG (antibody, V domains shown)
VH: QSLGESRGRLVTPDETLTLTCTVSGIDLSSNAMSWVRQAPGEGLEWIGTINTGGRAYYASWAKGRFTISRTSTTVDLKMTSLTTEDTATYFCARERYSDGRAYDIWGPGTLVTISS
VL: B2 VL with F48Y, R49T, T51S, S52N, V57I, D68N, S90D, N96I
notes: as for B2
B5: HW-70 chimeric rabbit-human IgG1 LA/LA/PG (antibody, V domains shown)
VH: QSLEESGGRLVTPGTPLTLTCTVSGFSLSSNAMSWVRQAPGKGLEWIGTIDGYGYTYYASWAKGRFTVSKTSTTVDLKITSPTTEDTATYFCAREIYLGSNFWGPGTLVTISS
VL: B2 VL with F48Y, D68N, S90A, N96S, Y99F
notes: as for B2
B6: HW-101 chimeric rabbit-human IgG1 LA/LA/PG (antibody, V domains shown)
VH: QEQLVESGGRLVTPGTPLTLTCKASGFSLGKYDMSWVRQAPGKGLEWIGTIYAGSGSTWYASWAKGRFTISKTSTTVDLKMTSLTTEDTATYFCARDFLGVNSIWGPGTLVTISS
VL: B2 VL with R30S, G40D, F48H, S65N, D68N, Y97F, Q98H, Y99F
notes: Fc-silenced (L234A/L235A/P329G) IgG1, lambda; Alexa Fluor 647-labeled in single-step flow cytometry; Cluster C-97
B7: HW-97 chimeric rabbit-human IgG1 LA/LA/PG (antibody, V domains shown)
VH: QKQLVESGGRLVTPGTPLTLTCTVTGIDLSSHGMSWVRQAPGKGLEWIGVIYPSGSTWYASWARGRFTISKTSTTVDLKMTSLTTEDTATHFCARGDVGGADNNIWGPGTLVTVSS
VL: B2 VL with N13D, D25E, R30S, F48Y, D68N, N96S
notes: Fc-silenced (L234A/L235A/P329G) IgG1, lambda; Alexa Fluor 647-labeled in single-step flow cytometry; Prototype of cluster C-97
B8: HW-25 chimeric rabbit-human IgG1 LA/LA/PG (antibody, V domains shown)
VH: QSLEESGGRLVTPGTPLTLTCTVSGFSLSSYAMGWVRQAPGKGLEWIGIIDSRGSTYYATWAKGRFTISKTSTTVDLKITSPTTEDTATYFCAREDSYYYDSFNLWGPGTLVTVSS
VL: B2 VL with F48Y, D68N, N96S, Y99C
notes: as for B2
B9: HW-113 chimeric rabbit-human IgG1 LA/LA/PG (antibody, V domains shown)
VH: QKQLVESGGGLVQPGGSLTLTCTVSGFSLNKYYMGWFRQAPGKGLEWIGVISRSGDTYYSSWAKGRFTISKASTTVDLRITSPTTEDTATYFCARDASSPGFHGDRLDLWGQGTLVTVSS
VL: B2 VL with R30S, F48Y, D68N, S93I, Q98L, Y99W
notes: Fc-silenced (L234A/L235A/P329G) IgG1, lambda; Alexa Fluor 647-labeled in single-step flow cytometry

One test has as its target T1, HHLA2. As to the kind of experiment: ELISA on coated protein. As to the method: (§1) Recombinant purified ECDs (50-150 ng) of each putative target protein were coated, incubated with 150 ng of the indicated primary antibody, and binding was detected using a peroxidase-conjugated anti-human Fab secondary antibody. Heatmap represents averages of technical triplicates. (8B) Target validation via siRNA knockdown. H929 cells were transfected with siRNA pools targeting the putative antibody targets ICAM1, CADM1, and PTPRG. Cells were then subjected to cognate IgG binding analysis via flow cytometry. (NT, non-targeting siRNA).
(§2) ELISA ELISA was conducted as described previously. Briefly, 50-150 ng of antigen was coated overnight in half-area 96-well plates at 4° C., blocked with 3% BSA at 37° C. for 1 h, and 150 ng of chimeric rabbit/human IgG1 was added, incubating for 2 h at 37° C. […] After incubating at 37° C. for 15 min-1 h (depending on intensity of controls), data were acquired using a SpectraMax M5 plate reader (Molecular Devices).
For orientation: In an ELISA, binding on a coated surface is turned into a signal by an enzyme label.
Turning to B1, the binding result is “no binding (tested: 150 ng IgG1 per well)”.

B2: the binding result is reported as “no binding (tested: 150 ng IgG1 per well)”.

Take B3: the binding result is listed as “no binding (tested: 150 ng IgG1 per well)”.

Consider B4, for which the binding result is “no binding (tested: 150 ng IgG1 per well)”.

Consider B5, for which the binding result is “no binding (tested: 150 ng IgG1 per well)”.

On to B6, for which the binding result is given as “no binding (tested: 150 ng IgG1 per well)”.

Turning to B7, the binding result is given as “no binding (tested: 150 ng IgG1 per well)”.

As to B8, the binding result was “no binding (tested: 150 ng IgG1 per well)”.

On to B9, for which the binding result is reported as “no binding (tested: 150 ng IgG1 per well)”.

The target of a further test is T2, DCC. As to the kind of experiment: ELISA on coated protein. How it is done: as §1, §2
Regarding B1, the binding result was “no binding (tested: 150 ng IgG1 per well)”.

For the molecule B2, the binding result is “no binding (tested: 150 ng IgG1 per well)”.

On to B3, for which the binding result is reported as “no binding (tested: 150 ng IgG1 per well)”.

For B4, the binding result is on record as “no binding (tested: 150 ng IgG1 per well)”.

In the case of B5, the binding result was “no binding (tested: 150 ng IgG1 per well)”.

With B6, the binding result is given as “no binding (tested: 150 ng IgG1 per well)”.

Regarding B7, the binding result was “no binding (tested: 150 ng IgG1 per well)”.

Turning to B8, the binding result is reported as “no binding (tested: 150 ng IgG1 per well)”.

Turning to B9, the binding result is recorded as “no binding (tested: 150 ng IgG1 per well)”.

A further test has as its target T3, SELL. Nature of the test: ELISA on coated protein. As to the method: as §1, §2
For B1, the binding result is “no binding (tested: 150 ng IgG1 per well)”.

As for B2, the binding result is “no binding (tested: 150 ng IgG1 per well)”.

Take B3: the binding result is recorded as “no binding (tested: 150 ng IgG1 per well)”.

B4: the binding result is “no binding (tested: 150 ng IgG1 per well)”.

Consider B5, for which the binding result was “no binding (tested: 150 ng IgG1 per well)”.

On to B6, for which the binding result was “no binding (tested: 150 ng IgG1 per well)”.

Turning to B7, the binding result is reported as “no binding (tested: 150 ng IgG1 per well)”.

On to B8, for which the binding result is on record as “no binding (tested: 150 ng IgG1 per well)”.

With B9, the binding result is listed as “no binding (tested: 150 ng IgG1 per well)”.

The target in another test is T4, GARS-His (Sino Biological). Nature of the test: ELISA on coated protein. How it is done: as §1, §2
As to B3, the binding result is listed as “no binding (tested: 150 ng IgG1 per well)”.

Turning to B4, the binding result is “no binding (tested: 150 ng IgG1 per well)”.

Turning to B6, the binding result is reported as “no binding (tested: 150 ng IgG1 per well)”.

With B7, the binding result was “no binding (tested: 150 ng IgG1 per well)”.

With B9, the binding result is “no binding (tested: 150 ng IgG1 per well)”.
